Data: patent publication US12215323B2, “Exogenous control of mammalian gene expression through aptamer-mediated modulation of polyadenylation” (Baylor College of Medicine, priority 2015, dated 2025)

Experiments:
hammerhead ribozyme = conditions: retina of nude mice, toyocamycin drug pellet under dorsal skin, ribozyme-based sensor; cited from earlier work
[1] = test system: luciferase reporter gene expression; experiment: Luciferase reporter assay of tetracycline-aptamer polyA switch constructs with and without tc; format: cell-based, human
Text: The general strategy for detecting and imaging proteins via modulation of polyA cleavage is critically dependent upon the highly efficient cleavage of the polyA signal at the 5′ UTR (FIG. 1). A first step was to test candidate polyA signals and associated upstream and downstream motifs that enable efficient polyA cleavage in cells. For testing polyA cleavage efficiency, a transient transfection assay involving a mammalian expression vector^49 was used with a GFP or luciferase reporter (merely as examples). Candidate polyA signal sequences were cloned at the 5′UTR of the reporter gene or transgene within the expression vector.

Row | Molecule | induced luciferase reporter expression (hammerhead ribozyme) | induction (fold), ratio of luciferase activity with and without Tc ([1]; 5 μg/mL Tc) [fold] | induction (fold), ratio of luciferase activity with and without Tc ([1]; 15 μg/mL Tc) [fold]
1 | N#Cc1cn([C@@H]2O[C@H](CO)[C@@H](O)[C@H]2O)c2ncnc(N)c12 [toyocamycin] | up to 180 fold | – | –
2 | C12: GP2SLGP2 variant in stem/loop-II region, central stem equivalent length 20 bp; SEQ ID NO: 60 (nucleic acid, Synthetic Primer) CTGCAGCACACACACAAATCTGGGGAGGTGAAGAATACGACCACCTGCGTTTTATACTTTGTTAAAACATACCAGATCGAATTCGATCTGGGGAGGTGAAGAATACGACCACCTAATAAAGTATAAAGTGCAAAACATACCAGATCTGTGTGTTGGTTTTTTGTGTGGCTAGCCACACACACAAATCTGGGGAGGTGAAGAATACGACCACCTGCGTTTTATACTTTGTTAAAACATACCAGATCGAATTCGATCTGGGGAGGTGAAGAATACGACCACCTAATAAAGTATAAAGTGCAAAACATACCAGATCTGTGTGTTGGTTTTTTGTGTGAACGGGGGAGGGGGAGGAAAGGGGGAGGGGGAGCGGCCGC | – | 94 | 151
3 | D11A: GP2SLGP2 variant in stem/loop-II region; SEQ ID NO: 61 (nucleic acid, Synthetic Primer) GCTAGCGAATTGCACACACACAAATCTGGGGAGGTGAAGAATACGACCACCTGCGTTTTATACTTTGTTAAAACATACCATCCTAAGCCTAAGGCAAACGCTATGGTATGGATGGGGAGGTGAAGAATACGACCACCTAATAAAGTATAAAGTGCAAAACATACCAGATCTGTGTGTTGGTTTTTTGTGTGGAATTCCACACACACAAATCTGGGGAGGTGAAGAATACGACCACCTGCGTTTTATACTTTGTTAAAACATACCAGATCGAAAGATCTGGGGAGGTGAAGAATACGACCACCTAATAAAGTATAAAGTGCAAAACATACCAGATCTGTGTGTTGGTTTTTTGTGTGAACGGGGGAGGGGGAGGAAAGGGGGAGGGGGAGCGGCCGC | – | 84 | 127
4 | GP2SLGP2: two GP2 aptamers connected back to back (Helper and Center); SEQ ID NO: 59 (nucleic acid, Synthetic Primerr) GCTAGCCACACACACAAATCTGGGGAGGTGAAGAATACGACCACCTGCGTTTTATACTTTGTTAAAACATACCAGATCGAAAGATCTGGGGAGGTGAAGAATACGACCACCTAATAAAGTATAAAGTGCAAAACATACCAGATCTGTGTGTTGGTTTTTTGTGTGGAATTCCACACACACAAATCTGGGGAGGTGAAGAATACGACCACCTGCGTTTTATACTTTGTTAAAACATACCAGATCGAAAGATCTGGGGAGGTGAAGAATACGACCACCTAATAAAGTATAAAGTGCAAAACATACCAGATCTGTGTGTTGGTTTTTTGTGTGAACGGGGGAGGGGGAGGAAAGGGGGAGGGGGAGCGGCCGC | – | 70 | 104
